In one series the target is NRP-1 (Homo sapiens, UniProt O14786). Description: NRP-1 binding, competitive assay. The following applies: printed in the figure, read-out: IC50 ± SD (NRP-1, Figure 12). As to the method: The affinity of AGuIX Ln@Mal-K(RB) and AGuIX Ln@Mal-K(RB)DKPPR to NRP-1 was determined as previously described in terms of IC50 in another study.
Series [1] is described as follows: Singlet oxygen production quantum yield. The format is physicochemical. The following applies: D2O, reference Eosin Y.
Series [2] in a line: Hydrodynamic size by TDA-ICP-MS. As to conditions: Table 4, listed as AGuIX Ln@Mal-K(RB)DKPPR (Ln = Tb). The class given is physicochemical. The procedure:
TDA experiments were conducted using a TDA-ICP-MS hyphenation between a Sciex P/ACE MDQ instrument and a 7700 Agilent ICP-MS. Fused silica capillaries with an inner diameter of 75 µm and outer diameter of 375 µm, and a total length of 64 cm, were coated with hydroxypropylcellulose (HPC) using a solution of 0.05 g mL^−1 in water. Detection was carried out by ICP-MS at m/z = 158 and m/z = 159 for Gd and Tb detection, respectively. Samples were hydrodynamically injected (0.3psi for 3 s), then mobilized using Tris 10 mM and NaCl 125 mM at 0.7 psi. Between runs, the capillary was flushed at 5 psi for 5 min with the mobilization medium. All measurements were performed at least in duplicates.
The detected peak was fitted by a sum of Gaussian distributions using Origin 8.5 software, according to Equation (8).(8) St=∑i=12Ai/σi 2πexp−t−t0^2/2σi2 where t0 is the peak residence time, and […] are the area under the curve and the temporal variance associated with each species i, respectively.
Under these experimental conditions, the molecular diffusion coefficient D is given by(9) D=Rc2t0/24σ^2=2kBT/6πηDh where Rc is the capillary radius, kB is the Boltzmann constant, T is the temperature, η is the viscosity, and Dh is the hydrodynamic diameter of the solute.
Therefore, using Equation (9), the hydrodynamic diameters can be calculated from the temporal variances measured from the fitted Taylorgram.

A short description of series [3]: Fluorescence quantum yield. The format is physicochemical. As to conditions: D2O, λexc = 558 nm; reference tetraphenylporphyrin. As to the method:
(§1) Absorption spectra were recorded on a UV-3600 UV–visible double beam spectrophotometer (Shimadzu, Marne-La-Vallée, France). Fluorescence spectra were recorded on a Fluorolog FL3-222 spectrofluorimeter (Horiba Jobin Yvon, Palaiseau, France) equipped with a 450 W Xenon lamp and thermostated cell compartment (25 °C), a UV–visible photomultiplier R928 (Hamamatsu Photonics, Hamamatsu, Japan) and an InGaAs infrared detector (DSS-16A020L Electro-Optical System Inc, Phoenixville, PA, USA). The excitation beam was diffracted by a double ruled grating SPEX monochromator (1200 grooves/mm blazed at 330 nm). The emission beam was diffracted by a double ruled grating SPEX monochromator (1200 grooves/mm blazed at 500 nm). Singlet oxygen emission was detected through a double ruled grating SPEX monochromator (600 grooves/mm blazed at 1 µm) and a long-wave pass (780 nm). All spectra were measured in four-face quartz vials.
The fluorescence quantum yield (Φf) is calculated using Equation (6).(6) Φf=Φf0 . If/If0.OD0/OD. (n/n0)^2 where Φf and Φf0, If and If0, OD and OD0, n and n0 are the quantum yields, fluorescence intensities, optical densities, and refractive indices of the sample and reference, respectively.
Tetraphenylporphyrin (TPP) was chosen as the fluorescence reference standard (Φf0 = 0.11, toluene).

A further series is described as follows: Zeta potential. The format is physicochemical. The following applies: DLS, Zetasizer Nano-Z, He-Ne 633 nm; pH 7.2 mentioned; listed as AGuIX Ln@Mal-K(RB)DKPPR (Ln = Tb). As to the method:
The zeta potential (ξ) for each NPs was determined using Zetasizer Nano-Z (Malvern, UK) equipped with a He-Ne laser at 633 nm.

A further series in a line: Ln luminescence lifetime. The following applies: D2O, λexc/λdetection = 351/545 nm. The format is physicochemical.
Another series in a line: RB fluorescence lifetime. The format is physicochemical. As to conditions: D2O, λexc = 470 nm; listed as AGuIX Ln@Mal-K(RB)DKPPR (Ln = Tb). As to the method:
The Ln luminescence lifetime is recorded after excitation at 545 nm for Tb and 313 nm for Gd. The fluorescence lifetime of RB is recorded after excitation at 470 nm ( τf470 ). ^1O2 emission spectra are obtained after excitation at 558 nm (maximum absorption wavelength of RB) but also after excitation at 351 nm for Tb and 273 nm for Gd.
as §1

In a further series the test system is U-251 MG cells. Briefly: Anchorage-dependent clonogenic assay with X-ray irradiation. The class given is cell-based, human. The following applies: [RB] = 1 µM, 24 h, clones after 7 days.

Results on two substances are retold here after paper PMC12114895, “Lanthanides-Based Nanoparticles Conjugated with Rose Bengal for FRET-Mediated X-Ray-Induced PDT” (Pharmaceuticals, 2025).

Ends that are not written are not given here. RB = not defined here

Broadly, the IC50 is the concentration that gives 50% inhibition.

Chain of NRP-1 (O14786 22-923): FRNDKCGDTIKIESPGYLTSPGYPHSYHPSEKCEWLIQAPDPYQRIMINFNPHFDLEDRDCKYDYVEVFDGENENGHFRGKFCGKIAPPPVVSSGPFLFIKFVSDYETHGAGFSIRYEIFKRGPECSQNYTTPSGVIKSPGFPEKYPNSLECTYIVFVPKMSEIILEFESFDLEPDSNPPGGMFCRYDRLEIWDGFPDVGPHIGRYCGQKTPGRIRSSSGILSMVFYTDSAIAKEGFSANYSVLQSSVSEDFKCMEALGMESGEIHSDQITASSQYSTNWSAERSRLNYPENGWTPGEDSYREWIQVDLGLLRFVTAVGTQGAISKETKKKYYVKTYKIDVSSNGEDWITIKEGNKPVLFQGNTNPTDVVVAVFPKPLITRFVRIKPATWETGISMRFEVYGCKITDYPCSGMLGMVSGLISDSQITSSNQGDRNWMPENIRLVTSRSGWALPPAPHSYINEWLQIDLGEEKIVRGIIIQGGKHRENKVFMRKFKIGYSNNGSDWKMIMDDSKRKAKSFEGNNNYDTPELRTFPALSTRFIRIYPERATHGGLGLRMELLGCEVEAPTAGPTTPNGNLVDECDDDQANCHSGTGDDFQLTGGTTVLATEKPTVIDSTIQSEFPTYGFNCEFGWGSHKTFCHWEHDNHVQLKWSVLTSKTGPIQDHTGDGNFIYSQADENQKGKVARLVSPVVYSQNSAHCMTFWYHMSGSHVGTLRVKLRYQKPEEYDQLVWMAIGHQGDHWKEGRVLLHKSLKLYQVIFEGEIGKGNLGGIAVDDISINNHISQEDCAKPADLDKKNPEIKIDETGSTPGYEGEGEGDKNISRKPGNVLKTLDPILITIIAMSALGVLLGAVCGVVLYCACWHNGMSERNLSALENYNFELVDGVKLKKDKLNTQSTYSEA

Turning to “Mal-K(RB)DKPPR [AGuIX Tb@Mal-K(RB)DKPPR] (not fully specified (N-terminus); printed as AGuIX Tb@Mal-K(RB)DKPPR; reading uncertain) [Mal-K(RB)DKPPR conjugated to thiolated AGuIX Tb NPs by thiol-maleimide click chemistry]”, in the series with NRP-1, the 50% inhibitory concentration (IC50) amounted to 6 ± 1.3 nM.

With “Mal-K(RB)DKPPR [AGuIX Tb@Mal-K(RB)DKPPR, Mal-K(RB)DKPPR conjugated to thiolated AGuIX Tb NPs by thiol-maleimide click chemistry]”, the “^1O2 quantum yield ΦΔ351(Tb)” value in series [1] (λexc = 351 nm) amounted to 0.36. For the same substance, in series [1] (λexc = 558 nm, listed as AGuIX Ln@Mal-K(RB)DKPPR (Ln = Tb)), the “^1O2 quantum yield ΦΔ558” value came to 0.68. Further, in series [2], the “percentage of population P1” value is 46% and the “percentage of population P2” value is 54%. In series [2] (Tris 10 mM and NaCl 125 mM), the “Size, population P1” value was determined as 5.4 nm and the “Size, population P2” value was 32.0 nm. For the same substance, the “Fluorescence quantum yield Φf558” value in series [3] is 0.11. Moreover, the “Zeta potential (ζ)” value in the series “Zeta potential” is −14 mV. In the series “Ln luminescence lifetime”, the “Ln luminescence lifetime τL (Tb)” value was determined as 345 µs. For the same substance, the “RB fluorescence lifetime τf470” value in the series “RB fluorescence lifetime” was 2.8 ns. Moreover, the “Cell survival (clonogenic capability relative to control)” value in the series with U-251 MG cells (X-ray 2 Gy (320 kV, 10 mA, 3 Gy/min), fraction of untreated non-irradiated cells, mean, triplicates from 3 experiments (n = 9)) was 0.43. Further, in the series with U-251 MG cells (X-ray 2 Gy, p = 0.02), the “decrease of cell growth (clones)” value stood at 57%.
